Tests used:
[1] = substrate: O=C1OC(c2ccc(O)cc2)(c2ccc(O[C@@H]3O[C@H](C(=O)O)[C@@H](O)[C@H](O)[C@H]3O)cc2)c2ccccc21; assay: malachite green phosphate assay coupled to phosphatase CP3, A620; type: biochemical, Homo sapiens; conditions: acceptor substrate, PAPS as donor, 37 °C, 20 min
[2] = substrate: [H][C@@]12CCc3cc(O[C@@H]4O[C@H](C(=O)O)[C@@H](O)[C@H](O)[C@H]4O)ccc3[C@@]1([H])CC[C@]1(C)[C@@H](O)CC[C@@]21[H]; assay: as above; type: biochemical, Homo sapiens; conditions: acceptor substrate, PAPS as donor, 37 °C, 20 min

B1: human recombinant CHST10 (Homo sapiens) (protein)
chain: TFKDPDVYSAKQEFLFLTTMPEVRKLPEEKHIPEELKPTGKELPDSQLVQPLVYMERLELIRNVCRDDALKNLSHTPVSKFVLDRIFVCDKHKILFCQTPKVGNTQWKKVLIVLNGAFSSIEEIPENVVHDHEKNGLPRLSSFSDAEIQKRLKTYFKFFIVRDPFERLISAFKDKFVHNPRFEPWYRHEIAPGIIRKYRRNRTETRGIQFEDFVRYLGDPNHRWLDLQFGDHIIHWVTYVELCAPCEIMYSVIGHHETLEDDAPYILKEAGIDHLVSYPTIPPGITVYNRTKVEHYFLGISKRDIRRLYARFEGDFKLFGYQKPDFLLN
notes: commercial recombinant protein (R&D Systems 6140-ST)
Work on B1 yielded a Km [1] of 41.6 ± 2.4 µM and a Km [2] of 73.9 ± 5.4 µM.
